Data set [1] has as its target transmembrane domain of p7b (p7b-TM) (SARS-CoV). Description: AUC.
The target is the same in data set [2]. Description: SDS-PAGE.
For data set [3] the target is unchanged. In words: AUC. This is another data set of the same source.
Data set [4] deals with the molecule itself. In words: SDS-PAGE.
Data set [5] concerns the molecule itself. Description: AUC.

Values joined by “and” are separate entries in the source; they are usually repeats but may differ in a detail not shown here. Equal entries are not always repeated.

Regarding “transmembrane domain of p7b (p7b-TM) (domain or fragment)”, the stoichiometry N in data set [1] is 4; in data set [2] it was 2; in data set [3] it was 2.
For the molecule MIELSLIDFYLCFLAFLLFLVLIMLIIFWFSLELQDHNETCHA (natural protein, also called SARS-2 p7b; SARS-2 7b) [SARS-CoV-2 accessory protein 7b], the “stoichiometry N” value in data set [4] amounted to 2; in data set [5], 4.
MNELTLIDFYLCFLAFLLFLVLIMLIIFWFSLEIQDLEEPCTKV (natural protein, also called SARS p7b; SARS 7b) [SARS-CoV accessory protein 7b]: the “stoichiometry N” value in data set [5] is 4 and 2.

As a reminder, the stoichiometry N is a count of units in the complex or per binding partner.

These data come from paper PMC9680129, “SARS-CoV-2 accessory protein 7b forms homotetramers in detergent” (Virology Journal, 2022).
